The values below come from patent publication US20100325744A1.

Changes are numbered by the printed parent chain. In names and notes the source's numbering stands.

For one test, the target named is 2F8-HG-T234A (human). Description: self-association of HG half-molecules; non-covalent nano-electrospray mass spectrometry.
The target in another test is 2F8-HG-L236A (human). The test is described as above.
The target of test [1] is 2F8-HG-Y275A (human). Described as above.
Test [2] has as its target 2F8-HG-Y275A (human). Description: self-association; non-covalent nano-electrospray mass spectrometry at 0.01-10 µM.
A further test concerns the target 2F8-HG-F273L (human). Kind of test: self-association of HG half-molecules; non-covalent nano-electrospray mass spectrometry.
Test [3] addresses 2F8-HG-F273A (human). Described as above.
Test [4] deals with 2F8-HG-F273A (human). Description: self-association; non-covalent nano-electrospray mass spectrometry at 0.01-10 µM.
Test [5] addresses 2F8-HG-L236V (human). Kind of test: self-association of HG half-molecules; non-covalent nano-electrospray mass spectrometry.
The target of test [6] is 2F8-HG-L236V (human). Kind of test: self-association; non-covalent nano-electrospray mass spectrometry at 0.01-10 µM.

B1: 2F8-HG-T234A (antibody, part only; not given: 2F8 variable domains, not shown: a dimerising Fc or GST)
heavy, part: ASTKGPSVFPLAPCSRSTSESTAALGCLVKDYFPEPVTVSWNSGALTSGVHTFPAVLQSSGLYSLSSVVTVPSSSLGTKTYTCNVDHKPSNTKVDKRVAPEFLGGPSVFLFPPKPKDTLMISRTPEVTCVVVDVSQEDPEVQFNWYVDGVEVHNAKTKPREEQFNSTYRVVSVLTVLHQDWLNGKEYKCKVSNKGLPSSIEKTISKAKGQPREPQVYTLPPSQEEMTKNQVSLACLVKGFYPSDIAVEWESNGQPENNYKTTPPVLDSDGSFFLYSRLTVDKSRWQEGNVFSCSVMHEALHNHYTQKSLSLSLGK
For the molecule B1, in the test with 2F8-HG-T234A (human), the percentage molecules present as monomers was greater than 80%.

B2: 2F8-HG-L236A (antibody, part only; not given: 2F8 variable domains, not shown: a dimerising Fc or GST)
heavy, part: B1 heavy, part with A234T, L236A
With B2, in the test with 2F8-HG-L236A (human), the percentage molecules present as monomers is greater than 80%.

B3: 2F8-HG-Y275A (antibody, part only; not given: 2F8 variable domains, not shown: a dimerising Fc or GST)
heavy, part: B1 heavy, part with A234T, Y275A
Regarding B3, the percentage molecules present as monomers in the test with 2F8-HG-Y275A (human) [1] was greater than 80%. This molecule displayed a percentage monomeric at low concentrations with 2F8-HG-Y275A (human) [2] of 100%.

B4: 2F8-HG-F273L (antibody, part only; not given: 2F8 variable domains, not shown: a dimerising Fc or GST)
heavy, part: B1 heavy, part with A234T, F273L
As to B4, the percentage molecules present as monomers with 2F8-HG-F273L (human) was greater than 80%.

B5: 2F8-HG-F273A (antibody, part only; not given: 2F8 variable domains, not shown: a dimerising Fc or GST)
heavy, part: B1 heavy, part with A234T, F273A
In turn, B5 had a percentage molecules present as monomers with 2F8-HG-F273A (human) [3] greater than 80%. In addition, the percentage monomeric at low concentrations with 2F8-HG-F273A (human) [4] was 100%.

B6: 2F8-HG-L236V (antibody, part only; not given: 2F8 variable domains, not shown: a dimerising Fc or GST)
heavy, part: B1 heavy, part with A234T, L236V
B6 had a percentage molecules present as monomers with 2F8-HG-L236V (human) [5] greater than 80%. Further, the percentage monomeric at low concentrations in the test with 2F8-HG-L236V (human) [6] came to 100%.
